Test results taken from patent US10584350B2, “Structurally modified COI1” (Board of Trustees of Michigan State University, priority 2016, dated 2020).

B1: F443: COI1 alanine substitution mutant at F443 (protein, UniProt O04197 1-592, looked up, variant F443A)
Coronatine-insensitive …: MEDPDIKRCKLSCVATVDDVIEQVMTYITDPKDRDSASLVCRRWFKIDSETREHVTMALCYTATPDRLSRRFPNLRSLKLKGKPRAAMFNLIPENWGGYVTPWVTEISNNLRQLKSVHFRRMIVSDLDLDRLAKARADDLETLKLDKCSGFTTDGLLSIVTHCRKIKTLLMEESSFSEKDGKWLHELAQHNTSLEVLNFYMTEFAKISPKDLETIARNCRSLVSVKVGDFEILELVGFFKAAANLEEFCGGSLNEDIGMPEKYMNLVFPRKLCRLGLSYMGPNEMPILFPFAAQIRKLDLLYALLETEDHCTLIQKCPNLEVLETRNVIGDRGLEVLAQYCKQLKRLRIERGADEQGMEDEEGLVSQRGLIALAQGCQELEYMAVYVSDITNESLESIGTYLKNLCDFRLVLLDREERITDLPLDNGVRSLLIGCKKLRRFAAYLRQGGLTDLGLSYIGQYSPNVRWMLLGYVGESDEGLMEFSRGCPNLQKLEMRGCCFSERAIAAAVTKLPSLRYLWVQGYRASMTGQDLMQMARPYWNIELIPSRRVPEVNQQGEIREMEHPAHILAYYSLAGQRTDCPTTVRVLKEPI
B2: K492: COI1 alanine substitution mutant at K492 (protein, UniProt O04197 1-592, looked up, variant K492A)
Coronatine-insensitive …: MEDPDIKRCKLSCVATVDDVIEQVMTYITDPKDRDSASLVCRRWFKIDSETREHVTMALCYTATPDRLSRRFPNLRSLKLKGKPRAAMFNLIPENWGGYVTPWVTEISNNLRQLKSVHFRRMIVSDLDLDRLAKARADDLETLKLDKCSGFTTDGLLSIVTHCRKIKTLLMEESSFSEKDGKWLHELAQHNTSLEVLNFYMTEFAKISPKDLETIARNCRSLVSVKVGDFEILELVGFFKAAANLEEFCGGSLNEDIGMPEKYMNLVFPRKLCRLGLSYMGPNEMPILFPFAAQIRKLDLLYALLETEDHCTLIQKCPNLEVLETRNVIGDRGLEVLAQYCKQLKRLRIERGADEQGMEDEEGLVSQRGLIALAQGCQELEYMAVYVSDITNESLESIGTYLKNLCDFRLVLLDREERITDLPLDNGVRSLLIGCKKLRRFAFYLRQGGLTDLGLSYIGQYSPNVRWMLLGYVGESDEGLMEFSRGCPNLQALEMRGCCFSERAIAAAVTKLPSLRYLWVQGYRASMTGQDLMQMARPYWNIELIPSRRVPEVNQQGEIREMEHPAHILAYYSLAGQRTDCPTTVRVLKEPI
B3: M88: COI1 alanine substitution mutant at M88 (protein, UniProt O04197 1-592, looked up, variant M88A)
Coronatine-insensitive …: MEDPDIKRCKLSCVATVDDVIEQVMTYITDPKDRDSASLVCRRWFKIDSETREHVTMALCYTATPDRLSRRFPNLRSLKLKGKPRAAAFNLIPENWGGYVTPWVTEISNNLRQLKSVHFRRMIVSDLDLDRLAKARADDLETLKLDKCSGFTTDGLLSIVTHCRKIKTLLMEESSFSEKDGKWLHELAQHNTSLEVLNFYMTEFAKISPKDLETIARNCRSLVSVKVGDFEILELVGFFKAAANLEEFCGGSLNEDIGMPEKYMNLVFPRKLCRLGLSYMGPNEMPILFPFAAQIRKLDLLYALLETEDHCTLIQKCPNLEVLETRNVIGDRGLEVLAQYCKQLKRLRIERGADEQGMEDEEGLVSQRGLIALAQGCQELEYMAVYVSDITNESLESIGTYLKNLCDFRLVLLDREERITDLPLDNGVRSLLIGCKKLRRFAFYLRQGGLTDLGLSYIGQYSPNVRWMLLGYVGESDEGLMEFSRGCPNLQKLEMRGCCFSERAIAAAVTKLPSLRYLWVQGYRASMTGQDLMQMARPYWNIELIPSRRVPEVNQQGEIREMEHPAHILAYYSLAGQRTDCPTTVRVLKEPI
B4: Y472: COI1 alanine substitution mutant at Y472 (protein, UniProt O04197 1-592, looked up, variant Y472A)
Coronatine-insensitive …: MEDPDIKRCKLSCVATVDDVIEQVMTYITDPKDRDSASLVCRRWFKIDSETREHVTMALCYTATPDRLSRRFPNLRSLKLKGKPRAAMFNLIPENWGGYVTPWVTEISNNLRQLKSVHFRRMIVSDLDLDRLAKARADDLETLKLDKCSGFTTDGLLSIVTHCRKIKTLLMEESSFSEKDGKWLHELAQHNTSLEVLNFYMTEFAKISPKDLETIARNCRSLVSVKVGDFEILELVGFFKAAANLEEFCGGSLNEDIGMPEKYMNLVFPRKLCRLGLSYMGPNEMPILFPFAAQIRKLDLLYALLETEDHCTLIQKCPNLEVLETRNVIGDRGLEVLAQYCKQLKRLRIERGADEQGMEDEEGLVSQRGLIALAQGCQELEYMAVYVSDITNESLESIGTYLKNLCDFRLVLLDREERITDLPLDNGVRSLLIGCKKLRRFAFYLRQGGLTDLGLSYIGQYSPNVRWMLLGAVGESDEGLMEFSRGCPNLQKLEMRGCCFSERAIAAAVTKLPSLRYLWVQGYRASMTGQDLMQMARPYWNIELIPSRRVPEVNQQGEIREMEHPAHILAYYSLAGQRTDCPTTVRVLKEPI
B5: L470: COI1 alanine substitution mutant at L470 (protein, UniProt O04197 1-592, looked up, variant L470A)
Coronatine-insensitive …: MEDPDIKRCKLSCVATVDDVIEQVMTYITDPKDRDSASLVCRRWFKIDSETREHVTMALCYTATPDRLSRRFPNLRSLKLKGKPRAAMFNLIPENWGGYVTPWVTEISNNLRQLKSVHFRRMIVSDLDLDRLAKARADDLETLKLDKCSGFTTDGLLSIVTHCRKIKTLLMEESSFSEKDGKWLHELAQHNTSLEVLNFYMTEFAKISPKDLETIARNCRSLVSVKVGDFEILELVGFFKAAANLEEFCGGSLNEDIGMPEKYMNLVFPRKLCRLGLSYMGPNEMPILFPFAAQIRKLDLLYALLETEDHCTLIQKCPNLEVLETRNVIGDRGLEVLAQYCKQLKRLRIERGADEQGMEDEEGLVSQRGLIALAQGCQELEYMAVYVSDITNESLESIGTYLKNLCDFRLVLLDREERITDLPLDNGVRSLLIGCKKLRRFAFYLRQGGLTDLGLSYIGQYSPNVRWMLAGYVGESDEGLMEFSRGCPNLQKLEMRGCCFSERAIAAAVTKLPSLRYLWVQGYRASMTGQDLMQMARPYWNIELIPSRRVPEVNQQGEIREMEHPAHILAYYSLAGQRTDCPTTVRVLKEPI
B6: R516: COI1 alanine substitution mutant at R516 (protein, UniProt O04197 1-592, looked up, variant R516A)
Coronatine-insensitive …: MEDPDIKRCKLSCVATVDDVIEQVMTYITDPKDRDSASLVCRRWFKIDSETREHVTMALCYTATPDRLSRRFPNLRSLKLKGKPRAAMFNLIPENWGGYVTPWVTEISNNLRQLKSVHFRRMIVSDLDLDRLAKARADDLETLKLDKCSGFTTDGLLSIVTHCRKIKTLLMEESSFSEKDGKWLHELAQHNTSLEVLNFYMTEFAKISPKDLETIARNCRSLVSVKVGDFEILELVGFFKAAANLEEFCGGSLNEDIGMPEKYMNLVFPRKLCRLGLSYMGPNEMPILFPFAAQIRKLDLLYALLETEDHCTLIQKCPNLEVLETRNVIGDRGLEVLAQYCKQLKRLRIERGADEQGMEDEEGLVSQRGLIALAQGCQELEYMAVYVSDITNESLESIGTYLKNLCDFRLVLLDREERITDLPLDNGVRSLLIGCKKLRRFAFYLRQGGLTDLGLSYIGQYSPNVRWMLLGYVGESDEGLMEFSRGCPNLQKLEMRGCCFSERAIAAAVTKLPSLAYLWVQGYRASMTGQDLMQMARPYWNIELIPSRRVPEVNQQGEIREMEHPAHILAYYSLAGQRTDCPTTVRVLKEPI
B7: L469: COI1 alanine substitution mutant at L469 (protein, UniProt O04197 1-592, looked up, variant L469A)
Coronatine-insensitive …: MEDPDIKRCKLSCVATVDDVIEQVMTYITDPKDRDSASLVCRRWFKIDSETREHVTMALCYTATPDRLSRRFPNLRSLKLKGKPRAAMFNLIPENWGGYVTPWVTEISNNLRQLKSVHFRRMIVSDLDLDRLAKARADDLETLKLDKCSGFTTDGLLSIVTHCRKIKTLLMEESSFSEKDGKWLHELAQHNTSLEVLNFYMTEFAKISPKDLETIARNCRSLVSVKVGDFEILELVGFFKAAANLEEFCGGSLNEDIGMPEKYMNLVFPRKLCRLGLSYMGPNEMPILFPFAAQIRKLDLLYALLETEDHCTLIQKCPNLEVLETRNVIGDRGLEVLAQYCKQLKRLRIERGADEQGMEDEEGLVSQRGLIALAQGCQELEYMAVYVSDITNESLESIGTYLKNLCDFRLVLLDREERITDLPLDNGVRSLLIGCKKLRRFAFYLRQGGLTDLGLSYIGQYSPNVRWMALGYVGESDEGLMEFSRGCPNLQKLEMRGCCFSERAIAAAVTKLPSLRYLWVQGYRASMTGQDLMQMARPYWNIELIPSRRVPEVNQQGEIREMEHPAHILAYYSLAGQRTDCPTTVRVLKEPI
B8: Q491: COI1 alanine substitution mutant at Q491 (protein, UniProt O04197 1-592, looked up, variant Q491A)
Coronatine-insensitive …: MEDPDIKRCKLSCVATVDDVIEQVMTYITDPKDRDSASLVCRRWFKIDSETREHVTMALCYTATPDRLSRRFPNLRSLKLKGKPRAAMFNLIPENWGGYVTPWVTEISNNLRQLKSVHFRRMIVSDLDLDRLAKARADDLETLKLDKCSGFTTDGLLSIVTHCRKIKTLLMEESSFSEKDGKWLHELAQHNTSLEVLNFYMTEFAKISPKDLETIARNCRSLVSVKVGDFEILELVGFFKAAANLEEFCGGSLNEDIGMPEKYMNLVFPRKLCRLGLSYMGPNEMPILFPFAAQIRKLDLLYALLETEDHCTLIQKCPNLEVLETRNVIGDRGLEVLAQYCKQLKRLRIERGADEQGMEDEEGLVSQRGLIALAQGCQELEYMAVYVSDITNESLESIGTYLKNLCDFRLVLLDREERITDLPLDNGVRSLLIGCKKLRRFAFYLRQGGLTDLGLSYIGQYSPNVRWMLLGYVGESDEGLMEFSRGCPNLAKLEMRGCCFSERAIAAAVTKLPSLRYLWVQGYRASMTGQDLMQMARPYWNIELIPSRRVPEVNQQGEIREMEHPAHILAYYSLAGQRTDCPTTVRVLKEPI

Test system: COI1-JAZ9 interaction
Test: Y2H assays on plates for protein-protein interaction
Type: cell-based, Arabidopsis
Conditions: 10 μM COR, yeast
Method: Yeast EGY48 strain carrying the p8Op:LacZ reporter plasmid was co-transformed with pGilda:COI1 (or COI1 mutants) and pB42AD:JAZ9 (or other JAZs) (Clontech). Colonies were selected on SD minimal plates (BD Biosciences) supplemented with the—uracil (U)/-tryptophan (W)/-histidine (H) amino acid drop out solution (Clontech). Yeast colonies were cultured overnight in liquid SD-UWH medium, harvested, washed twice in sterile water, and the absorbance (OD600) of the cultures was adjusted to 0.2 in liquid SD galactose/raffinose-UWH medium (BD Biosciences).
For Y2H assays on plates, 10-μL culture was spotted onto SD galactose/raffinose-UWH plates with 80 μg/mL X-gal and 10 μM COR (Sigma-Aldrich). Blue color indicated protein-protein interactions after 5-7 days of incubation at 30° C.

Row | Molecule | COR-dependent COI1-JAZ9 interaction
1 | B1 | reduced
2 | B2 | reduced
3 | B3 | reduced
4 | B4 | reduced
5 | B5 | reduced
6 | B6 | reduced
7 | B7 | reduced
8 | B8 | reduced
